The target of experiment [1] is T1, human CD20 antigen (human, UniProt P11836 1-297).
T1 construct: whole, on cells; also called CD20/CHO cells; CD20 on Raji cells
T1 sequence (looked up): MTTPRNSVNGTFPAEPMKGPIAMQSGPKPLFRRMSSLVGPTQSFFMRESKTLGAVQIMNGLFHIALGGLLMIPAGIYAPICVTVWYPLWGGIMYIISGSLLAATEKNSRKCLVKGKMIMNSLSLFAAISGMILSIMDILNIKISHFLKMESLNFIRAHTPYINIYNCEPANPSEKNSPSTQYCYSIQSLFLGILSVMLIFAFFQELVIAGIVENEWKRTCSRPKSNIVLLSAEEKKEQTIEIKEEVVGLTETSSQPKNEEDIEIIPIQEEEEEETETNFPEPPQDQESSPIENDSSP
The experiment is described as follows: CD20/CHO cell-ELISA, antibody at 32 ng/ml. The source says: (§1) The prepared 8 kinds of chimeric anti-CD20 monoclonal antibodies were examined for reactivity to the human CD20 antigen by the CD20/CHO cell-ELISA. Rituximab (c2B8) was used as a positive control. The values measured in the cell-ELISA (A492) reflect intensity of the binding property.
A general note: In an ELISA, binding on a coated surface is turned into a signal by an enzyme label.

Experiment [2] has as its target T1, human CD20 antigen. The experiment is described as follows: CD20/CHO cell-ELISA, antibody at 3 ng/ml.
Source text: as §1

The target of experiment [3] is T1, human CD20 antigen. The experiment is described as follows: CD20/CHO cell-ELISA, antibody at 1 ng/ml.
Source text: as §1

For experiment [4], the target named is T1, human CD20 antigen. The experiment is described as follows: CD20/CHO cell-ELISA, antibody at 10 ng/ml.
Source text: as §1

The target of experiment [5] is T1, human CD20 antigen. The experiment is described as follows: CD20/CHO cell-ELISA, antibody at 100 ng/ml.
Source text: as §1

For experiment [6], the target named is T1, human CD20 antigen. The experiment is described as follows: SB cell-ELISA, antibody at 10 ng/ml. The source says:
(§2) Several murine anti-CD20 monoclonal antibodies and 2B8 were reacted by using 96-well plates to which the SB cells, Raji cells, CD20/CHO cells and CD20 CHO parent cell line were adhered.

Experiment [7] deals with T1, human CD20 antigen. The experiment is described as follows: Raji cell-ELISA, antibody at 10 ng/ml.
Source text: as §2

Experiment [8] has as its target T1, human CD20 antigen. The experiment is described as follows: Raji cell-ELISA, antibody at 320 ng/ml.
Source text: as §2

The target of experiment [9] is T1, human CD20 antigen. The experiment is described as follows: SB cell-ELISA, antibody at 32 ng/ml.
Source text: as §2

Experiment [10] addresses T1, human CD20 antigen. The experiment is described as follows: CD20/CHO cell-ELISA, antibody at 1000 ng/ml.
Source text: as §2

The target in experiment [11] is T1, human CD20 antigen. The experiment is described as follows: CD20/CHO cell-ELISA, antibody at 32 ng/ml.
Source text: as §2
The source holds these as a separate data set.

Experiment [12] deals with T1, human CD20 antigen. The experiment is described as follows: Raji cell-ELISA, antibody at 100 ng/ml.
Source text: as §2

Experiment [13] has as its target T1, human CD20 antigen. The experiment is described as follows: Raji cell-ELISA, antibody at 32 ng/ml.
Source text: as §2

Experiment [14] concerns the target T1, human CD20 antigen. The experiment is described as follows: SB cell-ELISA, antibody at 1000 ng/ml.
Source text: as §2

The target of experiment [15] is T1, human CD20 antigen. The experiment is described as follows: SB cell-ELISA, antibody at 320 ng/ml.
Source text: as §2

The target in experiment [16] is T1, human CD20 antigen. The experiment is described as follows: SB cell-ELISA, antibody at 100 ng/ml.
Source text: as §2

Experiment [17] addresses T1, human CD20 antigen. The experiment is described as follows: Raji cell-ELISA, antibody at 1000 ng/ml.
Source text: as §2

Experiment [18] has as its target T1, human CD20 antigen. The experiment is described as follows: CD20/CHO cell-ELISA, antibody at 100 ng/ml.
Source text: as §2
This is another data set of the same source.

Experiment [19] addresses T1, human CD20 antigen. The experiment is described as follows: CD20/CHO cell-ELISA, antibody at 10 ng/ml.
Source text: as §2
The source holds these as a separate data set.

Experiment [20] deals with T1, human CD20 antigen. The experiment is described as follows: CD20/CHO cell-ELISA, antibody at 3 ng/ml.
Source text: as §2
The source holds these as a separate data set.

Experiment [21] concerns the target T1, human CD20 antigen. The experiment is described as follows: CD20/CHO cell-ELISA, antibody at 320 ng/ml.
Source text: as §2

B1: chimeric anti-CD20 monoclonal antibody c1K0924 (antibody, V domains shown)
VH: QVQLQQPGAELVKPGASVKMSCKASGYTFTSYNIHWVKQTPGQGLEWIGAIYPGNGDTSYNQKFKGKATLTSDKSSSTAYMQLSSLTSEDSAVYYCARMSTMITGFDYWGQGTTLTVSS
VL: QIVLSQSPAILSASPGEKVTMTCRASSSVSYMHWYQQRPGSSPKPWIYATSNLASGVPARFSGSGSGTSYYFTISRVEAEDAATYYCQQWNSNPPTHGGGTKLEIK
notes: Murine variable regions fused to human immunoglobulin H chain and L chain (kappa) constant regions of vector pNOW-Ab
Turning to B1, the A492 in the experiment with human CD20 antigen [1] was found to be 0.724 A492; with human CD20 antigen [2], 0.186 A492; in the experiment with human CD20 antigen [3], 0.094 A492; with human CD20 antigen [4], 0.391 A492; with human CD20 antigen [5], 1.42 A492.

B2: chimeric anti-CD20 monoclonal antibody c1K1402 (antibody, V domains shown)
VH: QVQLQQPGAELVKPGASVKMSCKASGFTFTSYNMHWVKQTPGQGLEWIGGIYPGNGDTSYNQKFKGKATLTADKSSSTAYMQLSSLTSEDSAVYYCARFYYYGSMGAMDYWGQGTSVTVSS
VL: QIVLSQSPAILSASPGEKVTMTCRASSSVSYMHWYQQKPGSSPKPWIYATSNLASGVPARFSGSGSGTSYSLTITRVEAEDAATYYCQQWTFNPPTFGAGTKLELK
notes: as for B1
In the case of B2, the A492 stood at 1.62 A492 with human CD20 antigen [1]; 0.349 A492 with human CD20 antigen [2]; 0.116 A492 in the experiment with human CD20 antigen [3]; 0.737 A492 in the experiment with human CD20 antigen [4]; 2.45 A492 with human CD20 antigen [5].

B3: chimeric anti-CD20 monoclonal antibody c1K1712 (antibody, V domains shown)
VH: QVQLQQPGAELVKPGASVKMSCKASGFTFTSYNLHWVKQTPGQGLEWIGAIYPGSGDTSYNQQFKGKATLTADKSSNTAYMQLNSLTSEDSAVYCCARSAMISTGNWYFDYWGQGTTLTVSS
VL: QIVLSQSPAILSASPGEKVTMTCRASSSVSYMDWYQQKPGSSPKPWIYATSNLASGVPARFSGSGSGTSYSLTISRVEAEDTATYYCQQWTFNPPTFGSGTKLEIK
notes: as for B1
B3: the A492 in the experiment with human CD20 antigen [1] was 1.68 A492; with human CD20 antigen [2], 0.359 A492; with human CD20 antigen [3] it was 0.145 A492; with human CD20 antigen [4], 0.793 A492; with human CD20 antigen [5], 2.29 A492.

B4: Rituximab (c2B8) (antibody, V domains shown)
VH: QVQLQQPGAELVKPGASVKMSCKASGYTFTSYNMHWVKQTPGRGLEWIGAIYPGNGDTSYNQKFKGKATLTADKSSSTAYMQLSSLTSEDSAVYYCARSTYYGGDWYFNVWGAGTTVTVSA
VL: QIVLSQSPAILSASPGEKVTMTCRASSSVSYIHWFQQKPGSSPKPWIYATSNLASGVPVRFSGSGSGTSYSLTISRVEAEDAATYYCQQWTSNPPTFGGGTKLEIK
B4: the A492 is 1.14 A492 in the experiment with human CD20 antigen [1]; 0.226 A492 in the experiment with human CD20 antigen [2]; 0.088 A492 with human CD20 antigen [3]; 0.536 A492 with human CD20 antigen [4]; 2.15 A492 with human CD20 antigen [5].

B5: chimeric anti-CD20 monoclonal antibody c1K1736 (antibody, V domains shown)
VH: QVQLQQPGAELVKPGASVKMSCKASGYTFTTYNLHWVKQTPGQGLEWIGGIYPGNGDTSYNQKFKVKATLTADKSSNTAYMQLSSLTSEDSAVYYCARWIYYGNYEGTLDYWGQGTSVTVSS
VL: QIVLSQSPAILSSSPGEKVTMTCRASSSVSYMLWYQQKPGSSPEPWIYATSNLASGVPARFSGGGSGTSYSLTISRVEAEDAATYYCQQWTFNPPTFGGGTKLEIK
notes: as for B1
Take B5: the A492 came out at 1.55 A492 with human CD20 antigen [1]; 0.32 A492 in the experiment with human CD20 antigen [2]; 0.122 A492 in the experiment with human CD20 antigen [3]; 0.748 A492 in the experiment with human CD20 antigen [4]; 2.43 A492 with human CD20 antigen [5].

B6: chimeric anti-CD20 monoclonal antibody c1K1422 (antibody, V domains shown)
VH: QVQLQQPGAELVKPGASVKMSCRASGYTFTNYNMHWIKQTPGQGLEWIGAIYPGSGDTSYNRKFKGKATLTADTSSSTAYMQFSSLTSADSAVYYCARFTYYYGGTYGAMDYWGQGTSVTVSL
VL: QIVLTQSPPIMSASLGEEITLTCSASSRVSYMLWYQQKSGTSPKLLIYSTSNLASGVPSRFSGSGSGTFYSLTISSVEAEDAADYYCHQWTSNPCTFGGGTKLEIK
notes: as for B1
For the molecule B6, the A492 in the experiment with human CD20 antigen [1] was 0.912 A492; in the experiment with human CD20 antigen [2], 0.151 A492; in the experiment with human CD20 antigen [3], 0.077 A492; with human CD20 antigen [4], 0.357 A492; with human CD20 antigen [5], 1.92 A492.

B7: murine anti-CD20 monoclonal antibody 1K1228 (antibody, V domains shown)
VH: QVQLQQPGAELVKPGASVKVSCKASGFTFTSYNLHWVKQTPGQGLVWIGAIYPGNGDTSYNQKFRGKATLTADISSSTAYMQLSSLTSEDSAVYYCARYYYGYDAMDYWGQGTSVTVSS
VL: EIILTQSPTTMAASPGEKITITCSASSSISSYYLRWYQQKPGFSPKVLIYRTSNLASGVPARFSGSGSGTSYSLTIGTMEAEDVATYYCQQGNTVPLTFGSGTKLEIK
notes: Mouse monoclonal antibody from a hybridoma, purified on protein G
Regarding B7, the A492 with human CD20 antigen [6] turned out to be 0.082 A492; in the experiment with human CD20 antigen [7], 0.148 A492; in the experiment with human CD20 antigen [8] it was 1.17 A492; with human CD20 antigen [9], 0.192 A492; with human CD20 antigen [10] it was 3.06 A492; with human CD20 antigen [11] it was 1.27 A492. Besides, the A492 in the experiment with human CD20 antigen [12] stood at 0.678 A492; with human CD20 antigen [13], 0.326 A492; with human CD20 antigen [14], 1.26 A492; in the experiment with human CD20 antigen [15], 0.931 A492; in the experiment with human CD20 antigen [16] it was 0.452 A492; with human CD20 antigen [17], 1.68 A492. In addition, the A492 in the experiment with human CD20 antigen [18] was determined as 2.09 A492; in the experiment with human CD20 antigen [19], 0.572 A492; in the experiment with human CD20 antigen [20], 0.265 A492; in the experiment with human CD20 antigen [21] it was 2.7 A492.

B8: chimeric anti-CD20 monoclonal antibody c1K1228 (antibody, V domains shown)
VH: QVQLQQPGAELVKPGASVKVSCKASGFTFTSYNLHWVKQTPGQGLVWIGAIYPGNGDTSYNQKFRGKATLTADISSSTAYMQLSSLTSEDSAVYYCARYYYGYDAMDYWGQGTSVTVSS
VL: EIILTQSPTTMAASPGEKITITCSASSSISSYYLRWYQQKPGFSPKVLIYRTSNLASGVPARFSGSGSGTSYSLTIGTMEAEDVATYYCQQGNTVPLTFGSGTKLEIK
notes: as for B1
With B8, the A492 with human CD20 antigen [1] was 1.58 A492; with human CD20 antigen [2], 0.289 A492; with human CD20 antigen [3], 0.12 A492; with human CD20 antigen [4], 0.701 A492; with human CD20 antigen [5], 2.23 A492.

B9: chimeric anti-CD20 monoclonal antibody c1K1782 (antibody, V domains shown)
VH: QVQLQQSGAELAKPGASVKMSCKASGYTFTSYWMHWVKQRPGQGLEWIGYITPSTGYTDYNKKFKDKATLTADRSSSTAYMHLSSLTSEDSAVYYCARSGPYFDVWGAGTTVTVSS
VL: DILLTQSPAILFVSPGERVSLSCRASQNIGTSIHWYQQRTNGSPRLLIKYASESFSGIPSRFSGSGSGTDFTLSINSVESEDIADYYCQQSNSWPFTFGSGTKLEIK
notes: as for B1
For B9, the A492 with human CD20 antigen [1] came out at 1.02 A492; with human CD20 antigen [2] it was 0.169 A492; with human CD20 antigen [3], 0.074 A492; in the experiment with human CD20 antigen [4], 0.505 A492; with human CD20 antigen [5], 2.1 A492.

B10: chimeric anti-CD20 monoclonal antibody c1K1791 (antibody, V domains shown)
VH: QIQLVQSGPELKKPGETVKISCKASGYTFTNFGVNWVKQAPGKGLKWMGWINTYTGEPSYADDFKGRFAFSLEASANTAYLQINNLKNDDMSTYFCTRRTNYYGTSYYYAMDYWGQGTSVTVSS
VL: STVMTQTPKFLLVSAGDRVTITCKASQSVSNDVAWYQQKPGQSPKVLIYFASNRYTGVPDRFTGSGYGTDFTFTINTVQAEDLAVYFCQQDYSSPLTFGAGTKLELK
notes: as for B1
B10: the A492 in the experiment with human CD20 antigen [1] is 1.46 A492; in the experiment with human CD20 antigen [2], 0.276 A492; with human CD20 antigen [3] it was 0.108 A492; in the experiment with human CD20 antigen [4] it was 0.745 A492; in the experiment with human CD20 antigen [5], 2.23 A492.
